Data set [1] concerns the target T1, wildtype human HMGCS1 (3-hydroxy-3-methylglutaryl-coenzyme A synthase) (human), Q01581.
T1 chain: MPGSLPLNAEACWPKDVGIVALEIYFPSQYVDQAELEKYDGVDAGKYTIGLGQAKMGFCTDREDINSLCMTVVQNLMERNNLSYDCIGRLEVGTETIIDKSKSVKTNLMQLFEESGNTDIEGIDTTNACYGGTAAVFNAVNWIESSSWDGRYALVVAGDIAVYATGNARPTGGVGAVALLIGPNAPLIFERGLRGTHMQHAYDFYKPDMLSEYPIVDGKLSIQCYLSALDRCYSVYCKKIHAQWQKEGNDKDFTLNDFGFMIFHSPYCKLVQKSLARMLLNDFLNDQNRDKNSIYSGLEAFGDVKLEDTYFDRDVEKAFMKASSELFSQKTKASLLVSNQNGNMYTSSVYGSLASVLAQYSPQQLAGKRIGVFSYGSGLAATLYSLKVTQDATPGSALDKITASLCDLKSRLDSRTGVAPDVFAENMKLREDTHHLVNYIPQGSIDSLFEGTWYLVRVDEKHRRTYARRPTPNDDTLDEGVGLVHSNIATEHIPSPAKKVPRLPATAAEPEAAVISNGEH
Kind of data set: SEC. To be noted: remark: other sources report otherwise.

The data set “SEC” deals with the molecule itself. Kind of data set: SEC.

Substitutions are numbered along the chain they refer to.

B1: wildtype human HMGCS1 (3-hydroxy-3-methylglutaryl-coenzyme A synthase), Q01581 1-520 (enzyme)
chain: T1 chain
For B1, the stoichiometry N (usually the number of molecules, sites or subunits per partner or assembly) in data set [1] is 2.

B2: human HMGCS1 p.Cys268Ser (enzyme, UniProt Q01581 1-520, looked up)
chain: T1 chain with C268S
For B2, the “stoichiometry N” value in the data set “SEC” was determined as 2.

B3: human HMGCS1 p.Ser447Pro (enzyme, UniProt Q01581 1-520, looked up)
chain: T1 chain with S447P
As to B3, the “stoichiometry N” value in “SEC” amounted to 2.

B4: human HMGCS1 p.Gln29Leu (enzyme, UniProt Q01581 1-520, looked up)
chain: T1 chain with Q29L
B4: the “stoichiometry N” value in the data set “SEC” worked out at 2.

B5: human HMGCS1 p.Met70Thr (enzyme, UniProt Q01581 1-520, looked up)
chain: T1 chain with M70T
Consider B5, for which the “stoichiometry N” value in “SEC” came to 2.

Source of the values: publication doi:10.1101/2023.10.25.23297129 (medRxiv, 2023).
